In patent publication US6890516:

Target: Drosophila nitric oxide synthase (DNOS) (Drosophila) (UniProt Q27571)
Test: cell-based or functional assay

Chain of Drosophila nitric oxide synthase (DNOS) (Drosophila) (Q27571 other isoform, or with tags, fused parts or gaps limits assumed): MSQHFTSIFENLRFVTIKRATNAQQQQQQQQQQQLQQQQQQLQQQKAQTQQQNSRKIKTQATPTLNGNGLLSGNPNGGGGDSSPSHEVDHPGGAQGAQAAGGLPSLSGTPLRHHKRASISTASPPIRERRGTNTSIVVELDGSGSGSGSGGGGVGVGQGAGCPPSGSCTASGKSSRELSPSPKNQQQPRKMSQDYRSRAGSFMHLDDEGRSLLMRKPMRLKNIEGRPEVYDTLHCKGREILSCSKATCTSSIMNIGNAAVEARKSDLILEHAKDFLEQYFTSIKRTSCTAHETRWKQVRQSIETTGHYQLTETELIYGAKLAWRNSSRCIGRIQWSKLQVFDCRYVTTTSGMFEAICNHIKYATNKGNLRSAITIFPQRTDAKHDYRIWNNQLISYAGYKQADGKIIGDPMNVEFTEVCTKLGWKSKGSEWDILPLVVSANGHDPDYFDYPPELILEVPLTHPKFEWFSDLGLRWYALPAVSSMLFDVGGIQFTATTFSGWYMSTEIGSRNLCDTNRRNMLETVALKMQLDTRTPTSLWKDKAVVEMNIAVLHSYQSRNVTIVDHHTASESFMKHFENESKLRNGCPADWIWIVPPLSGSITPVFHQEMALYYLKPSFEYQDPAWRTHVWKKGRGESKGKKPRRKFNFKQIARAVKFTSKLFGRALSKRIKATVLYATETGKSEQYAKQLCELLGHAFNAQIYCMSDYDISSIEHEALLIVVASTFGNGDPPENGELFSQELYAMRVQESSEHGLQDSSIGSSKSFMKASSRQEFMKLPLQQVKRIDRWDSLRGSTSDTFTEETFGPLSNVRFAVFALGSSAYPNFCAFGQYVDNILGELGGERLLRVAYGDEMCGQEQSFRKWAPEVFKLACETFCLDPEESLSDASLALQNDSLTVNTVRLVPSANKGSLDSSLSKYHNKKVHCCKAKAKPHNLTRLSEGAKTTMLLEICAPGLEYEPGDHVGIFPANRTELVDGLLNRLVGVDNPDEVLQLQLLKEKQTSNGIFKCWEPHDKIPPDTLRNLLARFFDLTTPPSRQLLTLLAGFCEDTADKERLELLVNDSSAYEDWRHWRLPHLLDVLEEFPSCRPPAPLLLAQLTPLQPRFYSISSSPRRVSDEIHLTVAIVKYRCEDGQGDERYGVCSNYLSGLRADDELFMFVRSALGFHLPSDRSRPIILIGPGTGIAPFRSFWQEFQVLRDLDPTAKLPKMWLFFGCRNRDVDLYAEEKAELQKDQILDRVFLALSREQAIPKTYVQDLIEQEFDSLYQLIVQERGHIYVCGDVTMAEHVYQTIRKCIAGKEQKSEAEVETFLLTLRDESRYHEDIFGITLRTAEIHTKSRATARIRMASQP

NO synthase activity (L-arginine to L-citrulline conversion, 293 cell extracts, with exogenous Ca2+ and calmodulin): 0.128 pmol/mg/min
NO synthase activity with 500 µM W5, a calmodulin antagonist: 0.0222 pmol/mg/min
NO synthase activity with 500 µM W5, a calmodulin antagonist (% of activity): 18
NO synthase activity with 1 mM EGTA, without exogenous Ca2+ or calmodulin: 90 % reduction
Substance: calmodulin
